Reference: the supplement of paper PMC10567573
± gives the standard deviation.

Test: protein stability index of a GFP-peptide fusion (GPS, HEK-293T) (PSI 1-6); higher = more stable
Settings: c terminus: a fixed tail appended
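Also: 24-mer peptide tiles fused after GFP, lentivirally expressed, FACS-sorted into six equal bins by GFP/DsRed ratio, decoded by Illumina sequencing, PSI is the read-weighted mean bin number.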

Sequence | protein stability index (treatment: DMSO) | protein stability index (treatment: MLN4924 1 uM, 8 h)
QGTARTLSPVLESPRDLQFSEIRE [TNXB] | 4.64 ± 0.16 | 4.78 ± 0.18
GEQPEPGEAAAGGAAEEARRLEQR [ACBD3] | 5.53 ± 0.34 | 5.44 ± 0.24
GLLQGTSAETSGGLLICLPREQAA [SEPHS2] | 3.07 ± 0.16 | 3.29 ± 0.18
LLDELMGRDRNLAPDEKRSNVRWD [LUC7L3] | 3.59 ± 0.21 | 3.64 ± 0.19
ETELAMRQSVENDIHGLRKVIDDT [KRT18] | 5.17 ± 0.28 | 5.2 ± 0.18
LINTSDTVQHGAVYSLEPRLCGGK [SDE2] | 3.97 ± 0.43 | 3.97 ± 0.33
VAAGVLCELAQDKEAAEAIEAEGA [CTNNB1] | 5.31 ± 0.12 | 5.44 ± 0.12
RHQRIHTGERPYECNECGKAFSRS [ZSCAN9] | 3.29 ± 0.24 | 3.82 ± 0.31
IRLMQRCWQGDPRVRPTFQEITSE [RIPK4] | 2.798 ± 0.002 | 2.78 ± 0.45
GDIQELYDTTLALGHAAAFSDDCD [GLT8D2] | 5.24 ± 0.12 | 5.23 ± 0.14
GWSLGRWTHDGIDINNNFPDLNTL [CPXM2] | 2.01 ± 0.085 | 2.34 ± 0.091
MIVDLLSEKKTISFQGCMAQLFMD [OR4A15] | 2.74 ± 0.52 | 2.42 ± 0.46
HSKGHKSSRQEKRPLCAQGDWHSP [ELOA2] | 3.93 ± 0.28 | 4.23 ± 0.37
LWENTRFTDCSFFVRGQEFKAHKS [SPOPL] | 2.74 ± 0.32 | 2.98 ± 0.25
FESFPAGSTLIFYKYCDHENAAFK [TOR1AIP2] | 2.17 ± 0.14 | 2.17 ± 0.23
LPPVAVRSLQDLARIAIRGTIKKI [PCMTD2] | 3.2 ± 0.34 | 3.12 ± 0.22
GCFLLILGQIVLLPAEARERSRGR [MATN2] | 1.97 ± 0.083 | 2.31 ± 0.48
DEEKKARRGRSPKGEFKDEEETVT [CLINT1] | 5.43 ± 0.28 | 5.57 ± 0.14
KLCTAHMCSTLEHNCAHFCINIPG [MATN2] | 2.22 ± 0.38 | 2.22 ± 0.29
ELDELQAAFEEFDTDRDGYISHRE [CABP4] | 5.26 ± 0.25 | 5.32 ± 0.15
EFEEATGEAGWGAGEGRLGHKRKQ [FOXJ1] | 5.26 ± 0.39 | 5.19 ± 0.5
WKYFKGNFYYFSLIPKTWYSAEQF [CD207] | 3.12 ± 0.47 | 2.78 ± 0.71

Sequence | protein stability index (treatment: DMSO) | protein stability index (treatment: MLN4924 1 uM, 8 h)
AGEVVCEAIKNEMNVMLKSSPVDL [IMPA1] | 3.67 ± 0.91 | 4.11 ± 0.25
SSTPDSTEGGNDDSDFRELHTARE [RTN2] | 5.41 ± 0.29 | 5.53 ± 0.21
CTVLRDARIRSHSWLESCIVGWRC [GMPPB] | 2.42 ± 0.39 | 1.93 ± 0.43
EVEEVENVQTEFPGEDENPEKASE [TRIM55] | 5.57 ± 0.39 | 5.47 ± 0.52
VQKRARSGPQPRLPPCLLPLSPPT [TRIB3] | 3.35 ± 0.2 | 3.46 ± 0.23
KGDRGLPLEGSAKGKVQAELSQPL [RBBP5] | 4.82 ± 0.33 | 4.75 ± 0.11
VPRAGPLTVNTEAQQLLREFEEAT [FOXJ1] | 4.96 ± 0.19 | 4.9 ± 0.26
LGYAVSTFAMVKGYFFPTSARDCK [DHCR7] | 2.09 ± 0.11 | 2.09 ± 0.13
RNRPKSTVNTHYFSIDEELVYENF [CDC14A] | 2.99 ± 0.37 | 3.39 ± 0.38
VCEVQVHGGSLLGKKYNWSCDDLM [GFOD1] | 2.58 ± 0.16 | 2.35 ± 0.32
GILNRPPAPTATVPAPQPPVTKPL [ZNF207] | 4.53 ± 0.19 | 4.57 ± 0.16
EDGMQCLQLKETLATQEPTDNQVR [DLC1] | 5.35 ± 0.13 | 5.5 ± 0.092
IRDQMQQQLNDYEQLLDVKLALDM [LMNB1] | 3.4 ± 0.25 | 3.48 ± 0.36
GASLRLAVEDGLQQFKQYSRHVTT [M1AP] | 3.06 ± 0.15 | 3.19 ± 0.43
AHAGAVHNGKIYISGGVHNGEYVP [KLHL14] | 3.03 ± 0.28 | 2.82 ± 0.41
KKTWKILTIMPYNSAHHCVVEVEN [KLHL14] | 2.27 ± 0.37 | 2.64 ± 0.26
QPNTYADFEFLAFWQTQYNNMNAV [PKD2L1] | 2.21 ± 0.4 | 2.03 ± 0.24
DDGYSTKDSYSSRDYPSSRDTRDY [RBMX] | 4.9 ± 0.25 | 4.77 ± 0.081
KRYAGREEHWVGLKKEPGHPWKWS [CD69] | 2.76 ± 0.22 | 2.83 ± 0.2
SSGKLICSRTTGYQILTLEKDQEQ [GMCL1] | 3.94 ± 0.46 | 4.37 ± 0.28
LFLRCSLRHKDEEEEDDDDIHITA [DRICH1] | 3.03 ± 0.35 | 3.23 ± 0.28
GALEALELSPPLSPASHVDVDLTI [FOXJ1] | 3.17 ± 0.23 | 3.43 ± 0.36

Sequence | protein stability index (treatment: DMSO) | protein stability index (treatment: MLN4924 1 uM, 8 h)
LRNITNSQAPDGRRKSEAGSGAAS [CDC25B] | 4.89 ± 0.24 | 5.1 ± 0.16
AQDPDVGTNTVSFYTLSPNSHFSL [PCDHGC5] | 2.57 ± 0.26 | 2.61 ± 0.3
SYCPHCGEESSKAKEVTIAKADTT [EHMT1] | 4.27 ± 0.19 | 4.58 ± 0.19
PMMEHEMGGHHPGADYPVDGLPDL [CTNNB1] | 5.2 ± 0.23 | 5.24 ± 0.13
CVSIPDVVGWFVLFYKPGIVLLLA [GULP1] | 2.63 ± 0.55 | 3.09 ± 0.066
HTLAVMNDRLYAIGGNHLKGFSHL [KLHL14] | 2.22 ± 0.12 | 2.18 ± 0.11
RHKSGVHQPPQAGAGDVVLLQREL [LYSMD4] | 4.08 ± 0.22 | 4.16 ± 0.092
GAAVVRPPGHHAEQDAACGFCFFN [HDAC6] | 3.14 ± 0.36 | 3.26 ± 0.25
LDSEKRTPLHVAAFLGDAEIIELL [ANKRD44] | 2.95 ± 0.12 | 3.03 ± 0.32
FWNIKQMWDTKTLGLRQHHCRKCG [WDFY1] | 2.64 ± 0.25 | 2.86 ± 0.49
VAEQVGIDKGDIPDLTQAPSSLME [SNAP91] | 4.97 ± 0.38 | 5.03 ± 0.23
NHEEDAGVRCNTPAMGLQKKLRLN [LOXL2] | 4.64 ± 0.12 | 4.5 ± 0.36
FLVRLLMAMAVMLYYSNFVLALEE [MFSD9] | 2.85 ± 0.14 | 3.02 ± 0.21
SQWDVLSGDCDQRFRFPSPILKVQ [RBBP5] | 3.34 ± 0.14 | 3.38 ± 0.32
LSALLQFGVTYLEDYSAEYIIQQG [BCL2L13] | 2.9 ± 0.42 | 2.43 ± 0.55
DMTFEEEAQLLQLKVKCLNNLAAS [FKBP8] | 3.42 ± 0.27 | 3.54 ± 0.46
EILLHPWFESVLEPGYIDSEIGTS [TRIB1] | 2.44 ± 0.29 | 2.56 ± 0.43
ADISQMLVCTADGDIHLSPEEPAA [TAF7L] | 4.93 ± 0.17 | 4.94 ± 0.077
IAHDGQRIYVLGGGTSWTAYSLNK [KLHDC10] | 2.13 ± 0.38 | 2.1 ± 0.066
LLLLYFMQVIAIVLYLMMPIVNIS [PHTF1] | 3.15 ± 0.42 | 3.06 ± 0.52
LTSMRRLSSIKRDTNSIAKAIKAR [STX11] | 3.4 ± 0.26 | 3.64 ± 0.34
